According to PMC11957692, “TRIB3 mediates vascular calcification by facilitating self-ubiquitination and dissociation of Smurf1 in chronic kidney disease” (The Journal of Clinical Investigation, 2025):

How the values were obtained:
[1] = target: T1, recombinant Smurf1 protein (UniProt Q9HCE7 1-757); test: SPR; recombinant Smurf1 immobilised on a CM5 sensor chip by amine coupling; TRIB3 protein applied at 31 nM to 8 uM; Biacore T200, kinetics model; conditions: both partners purified
T1 construct: Smad ubiquitination regulatory factor 1 (Smurf1), recombinant protein immobilised on a CM5 chip for SPR; also called Smad ubiquitination regulatory factor 1; E3 ubiquitin-protein ligase Smurf1

[2] = target: T2, recombinant Smurf1 protein (UniProt Q9HCE7 1-757); test: SPR
T2 chain: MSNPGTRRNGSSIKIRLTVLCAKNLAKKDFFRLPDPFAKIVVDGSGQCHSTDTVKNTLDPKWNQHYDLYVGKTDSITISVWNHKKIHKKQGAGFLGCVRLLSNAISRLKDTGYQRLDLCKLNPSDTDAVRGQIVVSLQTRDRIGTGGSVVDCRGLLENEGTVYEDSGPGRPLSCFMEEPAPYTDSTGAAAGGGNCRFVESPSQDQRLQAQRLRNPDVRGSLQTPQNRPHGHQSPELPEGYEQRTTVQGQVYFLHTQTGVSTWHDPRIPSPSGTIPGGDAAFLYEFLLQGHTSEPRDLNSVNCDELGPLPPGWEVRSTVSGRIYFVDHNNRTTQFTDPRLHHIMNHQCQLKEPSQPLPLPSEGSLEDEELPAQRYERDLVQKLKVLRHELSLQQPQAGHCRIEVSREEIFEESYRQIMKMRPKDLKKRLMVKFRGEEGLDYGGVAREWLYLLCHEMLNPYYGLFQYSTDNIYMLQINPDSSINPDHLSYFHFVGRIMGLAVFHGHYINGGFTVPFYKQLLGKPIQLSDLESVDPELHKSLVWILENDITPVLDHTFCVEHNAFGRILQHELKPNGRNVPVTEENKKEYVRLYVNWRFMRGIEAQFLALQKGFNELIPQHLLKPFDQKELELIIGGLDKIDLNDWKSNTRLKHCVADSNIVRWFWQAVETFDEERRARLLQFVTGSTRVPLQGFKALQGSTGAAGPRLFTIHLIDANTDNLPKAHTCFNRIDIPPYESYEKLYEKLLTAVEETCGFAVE

B1: recombinant TRIB3 protein (natural protein, UniProt Q96RU7 1-358, looked up)
chain: MRATPLAAPAGSLSRKKRLELDDNLDTERPVQKRARSGPQPRLPPCLLPLSPPTAPDRATAVATASRLGPYVLLEPEEGGRAYQALHCPTGTEYTCKVYPVQEALAVLEPYARLPPHKHVARPTEVLAGTQLLYAFFTRTHGDMHSLVRSRHRIPEPEAAVLFRQMATALAHCHQHGLVLRDLKLCRFVFADRERKKLVLENLEDSCVLTGPDDSLWDKHACPAYVGPEILSSRASYSGKAADVWSLGVALFTMLAGHYPFQDSEPVLLFGKIRRGAYALPAGLSAPARCLVRCLLRREPAERLTATGILLHPWLRQDPMPLAPTRSHLWEAAQVVPDGLGLDEAREEEGDREVVLYG
notes: Tribbles homolog 3 (TRIB3), recombinant protein flowed over the chip in SPR; also called tribbles homolog 3
[1]
  Kd: 1030 nM
[2]
  koff: 0.0015 s⁻¹
